{
  "source": "patent US20160177324A1",
  "about": "“NOVEL PROTEIN AND GENE RELATED TO FLAVONOID O-METHYLTRANSFERASE (FOMT) AND THEIR USES THEREFORE” (INSTITUTE OF BOTANY, THE CHINESE ACADEMY OF SCIENCES, priority 2013, published 2016)",
  "molecules": {"B1": {"name": "PsFOMT: flavonoid O-methyltransferase from tree peony Paeonia suffruticosa cv. 'Gunpohden', SEQ ID NO: 3; recombinant MBP fusion protein (protein, listed as Paeonia suffruticosa)", "chain": "MAESDRKGILKSEALLKYILETSVYPREHEQLKQLRQATVDKYKYWSVMNVPADEGQFLSMLLKIMNAKKTIEVGVFTGYSLLTAALALPTDAKITAIDPDGEAYETGLPFIKKAGVEHKINYIQADAMSVLDDLVTNGKEEGSFDFAFVDADKENYAKYHEPLMKLVKIGGIIGYDNTLWFGSVALSDGDEMKEFQEKGRRIFREFNTFLAADPRIELAHISIGDGLALCRRLY", "modifications": "MBP fusion", "notes": "recombinant MBP fusion protein"}},
  "key": {"[1]": {"test_system": "Nicotiana tabacum cv.Nc89", "experiment": "Flavonoid O-methyltransferase activity in transgenic tobacco", "format": "in vivo", "text": "The full length genes were introduced with a BamHl site and an XhoI site on 5′- and 3′-end by PCR with primers SEQ No. 5 & 6. The double digested fragment of interest and eukaryotic expression vector pBI121 with BamHl site and an XhoI were ligated. Then the appropriate constructs were introduced into Agrobacterium strain EHA105 by electroporation.\nLeaf of Nicotiana tabacum cv.Nc89 plant (Donated by Professor Silan Dai, Beijing Forestry University) was disinfected by 75% ethanol for 30 s, followed by 2% sodium hypochlorite for 3 minutes, and then washed with sterile water for three times. The leaf was cut into squares (25 mm^2) A single colony of Agrobacterium strain EHA105 with pBI121-FOMT construct was used to inoculate with 2 mL of YEB medium (per liter: 5 g of beef extract, 1 g of yeast extract, 5 g of sucrose, and 0.5 g of MgSO4.7H2O), supplemented with 50 mg mL^−1 kanamycin and 25 mg mL^−1 Rifampicin. The culture was incubated at 28° C. until OD600 0.6-0.8, and the bacteria were pelleted by centrifugation at 5000 rpm for 5 minutes. The cells were washed by MS liquid medium and resuspended pellets with appropriate volume of MS liquid. The tobacco leaf squares were dipped into the bacteria solution for 8 minutes and cultivated on MS media containing 2.0 mg L^−1 6-benzylaminopurine (6-BA), 0.2 mg L^−1 1-naphthylacetic acid (NAA), and 500 mg L^−1 ceflomine. The explants were transferred to fresh selected medium after two weeks. When the regenerating plantlets grow to 2 cm, move them to MS media containing 0.2 mg L^−1 NAA to induce root. After four weeks, the transgenic tobacco plantlets were transferred to pots and kept in the greenhouse till flowering. The positive transgenic lines were selected by PCR, and transgenic plantlets with empty plasmid were used as control. The anthocyanins in transgenic petals were detected with an HPLC system.\nAppropriate amount of sample (petal, fruits) was powdered with mortars and pestles and extracted for the first time with 2 mL 2% (v/v) formic acid methanol solution shaken in a QL-861 vortex (Kylinbell Lab Instruments, Jiangsu, China), sonicated in KQ-500DE ultrasonic cleaner (Ultrasonic instruments, Jiangsu Kunshan, China) at 20° C. for 20 min, centrifuged in SIGMA 3K30 (SIGMA centrifugers, Germany) (12000 rpm, 10 min), and the supernatant was collected. Additional 2 mL and 1 mL extraction solution was supplemented to the residue, and repeated aforesaid operation for the second and third times. All extract was pooled and filtrated through 0.22 μm reinforced nylon membrane filters (Shanghai ANPEL, Shanghai, China) before the HPLC-DAD and HPLC-ESI-MS^n analyses. Three replicates were performed for each sample. […]\nHPLC-ESI-MS^n analysis was carried with an Agilent-1100 HPLC system equipped with a UV detector coupled to a LC-MSD Trap VL ion-trap mass spectrometer via an ESI source (Agilent Technologies, Palo Alto, Calif.). […] The MS conditions were listed as follow: negative-ion (NI) mode; capillary voltage of 3.5 kV; a nebulization pressure of 241.3 kPa; and a gas (N2) temperature of 350° C. with flow rate of 6.0 L min^−1 Capillary offset voltage was 77.2 V. MS spectra were recorded over the range from m/z 50-1000."}, "[2]": {"experiment": "Biochemical characterization of PsFOMT reaction conditions (pH, temperature, divalent cations, Mg2+ concentration)", "experimental": "For quantitative analyses, reaction conditions were optimized. The pH dependence of FOMTs activity was assessed in the pH range of 4.5 to 8.5 using MES (4.5-6.5) and Tris-HCl (7.5-8.5) buffer. The effect of divalent cations on enzyme activity was estimated by adding to the reaction mixture containing 10 mM MgCl2, CaCl2, ZnCl2, MnCl2, CoCl2 or EDTA. The proper concentration of metal ion was assessed by testing different concentrations of MgCl2 (0.1, 0.2, 0.5, 1.0, 5.0 and 10 mM). Incubation temperature was set at 25, 30, 35 and 40° C. to detect the effect on enzyme activity.\nThe reaction system was according to Hugueney et al. with some modification (Hugueney, P., et al., A novel cation-dependent O-methyltransferase involved in anthocyanin methylation in grapevine. Plant Physiology, 2009. 150(4): p. 2057-2070.). Purified recombinant FOMT (2 μg) was assayed in a final volume of 200 μL containing 200 μM SAM, 1 mM MgCl2, 14 mM β-mercaptoethanol, 100 mM Tris, pH 7.5, and 20 μM flavonoid substrates. Incubation was performed at 35° C. and stopped with 200 μL methanol containing 2% formic acid. For enzyme kinetic studies, purified FOMT was incubated based on the above condition with the exception that a range of substrate concentrations from 5 to 200 μM were used for Km determination. Reaction product was analyzed by a Dionex HPLC system (Sunnyvale, Calif.), equipped with a P680 HPLC pump, an UltiMate 3000 autosampler, a TCC-100 thermostated column compartment and a Dionex PDA100 photodiode array detector. The analytical column was C18 column of ODS 80Ts QA (150 mm×4.6 mm, 5 μm i.d., Tosoh, Tokyo) protected with a C18 guard cartridge (Shanghai ANPEL Scientific Instrument, Shanghai). The following solvent and gradient were used: A, 10% aqueous formic acid; B, methanol; constant gradient from 10 to 36% B within 15 min and back to 10% B in 3 min; the flow rate was 0.8 mL min^−1; Column temperature was maintained at 35° C.; 20 μL of analyte was injected. Chromatograms were obtained at 525 nm for anthocyanins and 350 nm for other flavonoids, and photodiode array spectra were recorded from 200 to 800 nm. Km and Vmax values were calculated from Lineweaver-Burk plots."}},
  "data": [
    {"molecule": "B1", "values": [
      {"measurement": "flower color compared with control lines", "setting": "[1]; transgenic tobacco flowers", "result": "tend to purplish"},
      {"measurement": "methyltransferase function in tobacco petal (new anthocyanin Pn3R detected)", "setting": "[1]; transgenic tobacco petals vs empty vector", "result": "performed as a methyltransferase"},
      {"measurement": "content of peonidin 3-O-rutinoside (Pn3R) in total anthocyanin (TA)", "setting": "[1]; transgenic tobacco petals, 35S:: lines", "result": "much higher"},
      {"measurement": "activity in the presence of EDTA", "setting": "[2]; 10 mM EDTA", "result": "could not been detected"},
      {"measurement": "influence of different divalent cations on activity", "setting": "[2]; 10 mM MgCl2, CaCl2, ZnCl2, MnCl2, CoCl2", "result": "most active in the presence of Mg^2+"},
      {"measurement": "effect of increasing incubation temperature on activity", "setting": "[2]; 25-40° C.", "result": "accelerated"},
      {"measurement": "optimal concentration of Mg^2+", "setting": "[2]; MgCl2 0.1-10 mM tested", "result": 1.0, "unit": "mM"},
      {"measurement": "pH optimum", "setting": "[2]; on the substrate of Qu3R", "result": 7.5},
      {"measurement": "pH dependence range of activity in vitro", "setting": "[2]; substrate Qu3R, pH 4.5 to 8.5 tested", "result": "6.5-8.5"}
    ]}
  ]
}
